This passage reports fold improved affinity against clone 2.1 results from patent US10400030B2.

The target in this assay is IL-17RA Fc fusion protein (human) (UniProt Q96F46). Briefly: BIAcore T200, IL-17RA Fc fusion captured on protein G surface, single-cycle kinetics.

B1: clone 2.2 VH (VHH)
VHH: QVQLVQSGAEVKKPGASVKVSCKASGYPFTSYDINWVRQATGRSLEWMGWMNPTNGNTVYAQKFQDRVTMTRNTSISTAYMELSSLRSEDTAVYFCARGRRDDWKNNYWGQGTLVTVSS
Molecule B1 yielded a fold improved affinity against clone 2.1 of 5 fold.
